Key:
[1] = molecular target: T1, Rab3GAP2N (N-terminal domain of Rab3GAP2, 1-544) (human, UniProt Q9H2M9 1-544); assay: SEC
T1 sequence (looked up): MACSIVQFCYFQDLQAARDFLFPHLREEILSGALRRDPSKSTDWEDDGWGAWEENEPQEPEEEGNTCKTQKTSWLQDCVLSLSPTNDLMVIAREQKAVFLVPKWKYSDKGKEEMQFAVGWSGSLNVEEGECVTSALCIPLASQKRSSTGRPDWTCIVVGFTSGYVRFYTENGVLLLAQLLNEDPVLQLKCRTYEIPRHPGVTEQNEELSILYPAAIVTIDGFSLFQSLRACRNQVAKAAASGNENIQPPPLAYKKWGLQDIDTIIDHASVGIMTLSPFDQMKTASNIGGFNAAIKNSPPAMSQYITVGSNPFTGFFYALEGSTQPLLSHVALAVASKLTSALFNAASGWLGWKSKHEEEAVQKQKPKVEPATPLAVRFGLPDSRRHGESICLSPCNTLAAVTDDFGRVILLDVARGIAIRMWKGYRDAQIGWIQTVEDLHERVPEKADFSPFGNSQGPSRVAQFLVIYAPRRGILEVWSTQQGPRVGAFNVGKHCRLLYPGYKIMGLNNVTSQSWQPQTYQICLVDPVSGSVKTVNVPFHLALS

[2] = molecular target: T2, Rab3GAP2 (human, full length, C-terminal 3x-FLAG) (human, UniProt Q9H2M9 1-1393); assay: SEC
T2 sequence (looked up): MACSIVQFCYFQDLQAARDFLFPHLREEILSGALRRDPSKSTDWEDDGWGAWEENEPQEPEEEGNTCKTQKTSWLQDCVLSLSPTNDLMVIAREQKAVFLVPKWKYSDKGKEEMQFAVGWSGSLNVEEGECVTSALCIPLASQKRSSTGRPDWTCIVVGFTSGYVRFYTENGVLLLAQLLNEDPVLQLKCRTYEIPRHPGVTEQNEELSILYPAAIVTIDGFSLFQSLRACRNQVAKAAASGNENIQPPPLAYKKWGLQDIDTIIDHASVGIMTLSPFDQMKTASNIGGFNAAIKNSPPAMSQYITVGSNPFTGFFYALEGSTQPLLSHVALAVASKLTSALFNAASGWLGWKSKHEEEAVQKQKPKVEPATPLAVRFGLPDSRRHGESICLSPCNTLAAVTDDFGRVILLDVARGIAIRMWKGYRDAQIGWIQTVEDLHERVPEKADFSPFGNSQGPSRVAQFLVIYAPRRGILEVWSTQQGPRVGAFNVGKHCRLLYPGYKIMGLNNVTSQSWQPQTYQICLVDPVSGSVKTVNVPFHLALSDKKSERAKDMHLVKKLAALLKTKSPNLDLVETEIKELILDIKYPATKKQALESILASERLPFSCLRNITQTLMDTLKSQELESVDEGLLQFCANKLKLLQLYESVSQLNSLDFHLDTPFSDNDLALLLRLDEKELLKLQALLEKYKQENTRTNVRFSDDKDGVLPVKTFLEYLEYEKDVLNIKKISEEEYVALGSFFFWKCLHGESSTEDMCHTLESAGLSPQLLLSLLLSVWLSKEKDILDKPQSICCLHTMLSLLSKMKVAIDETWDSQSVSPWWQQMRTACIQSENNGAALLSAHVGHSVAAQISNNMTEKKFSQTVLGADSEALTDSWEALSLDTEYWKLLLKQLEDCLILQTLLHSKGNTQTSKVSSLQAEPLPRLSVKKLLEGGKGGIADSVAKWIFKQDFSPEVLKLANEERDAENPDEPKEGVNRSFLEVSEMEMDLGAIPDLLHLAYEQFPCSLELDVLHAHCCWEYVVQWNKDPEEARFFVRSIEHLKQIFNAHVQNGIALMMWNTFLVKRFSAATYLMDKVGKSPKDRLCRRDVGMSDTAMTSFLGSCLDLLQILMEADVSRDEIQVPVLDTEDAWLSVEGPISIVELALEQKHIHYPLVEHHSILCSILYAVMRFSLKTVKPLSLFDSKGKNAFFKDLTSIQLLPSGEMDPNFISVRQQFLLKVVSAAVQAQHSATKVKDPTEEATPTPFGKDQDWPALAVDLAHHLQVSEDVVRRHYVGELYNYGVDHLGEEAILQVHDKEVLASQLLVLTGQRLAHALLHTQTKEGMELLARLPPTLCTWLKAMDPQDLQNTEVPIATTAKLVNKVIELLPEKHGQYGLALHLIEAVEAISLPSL

stoichiometry N [1]: 1 | stoichiometry N [2]: 1
B1: Rab3GAP1 (human, full length, N-terminal TSP tag) (natural protein, UniProt Q15042 1-981, looked up)
chain: MAADSEPESEVFEITDFTTASEWERFISKVEEVLNDWKLIGNSLGKPLEKGIFTSGTWEEKSDEISFADFKFSVTHHYLVQESTDKEGKDELLEDVVPQSMQDLLGMNNDFPPRAHCLVRWYGLREFVVIAPAAHSDAVLSESKCNLLLSSVSIALGNTGCQVPLFVQIHHKWRRMYVGECQGPGVRTDFEMVHLRKVPNQYTHLSGLLDIFKSKIGCPLTPLPPVSIAIRFTYVLQDWQQYFWPQQPPDIDALVGGEVGGLEFGKLPFGACEDPISELHLATTWPHLTEGIIVDNDVYSDLDPIQAPHWSVRVRKAENPQCLLGDFVTEFFKICRRKESTDEILGRSAFEEEGKETADITHALSKLTEPASVPIHKLSVSNMVHTAKKKIRKHRGVEESPLNNDVLNTILLFLFPDAVSEKPLDGTTSTDNNNPPSESEDYNLYNQFKSAPSDSLTYKLALCLCMINFYHGGLKGVAHLWQEFVLEMRFRWENNFLIPGLASGPPDLRCCLLHQKLQMLNCCIERKKARDEGKKTSASDVTNIYPGDAGKAGDQLVPDNLKETDKEKGEVGKSWDSWSDSEEEFFECLSDTEELKGNGQESGKKGGPKEMANLRPEGRLYQHGKLTLLHNGEPLYIPVTQEPAPMTEDLLEEQSEVLAKLGTSAEGAHLRARMQSACLLSDMESFKAANPGCSLEDFVRWYSPRDYIEEEVIDEKGNVVLKGELSARMKIPSNMWVEAWETAKPIPARRQRRLFDDTREAEKVLHYLAIQKPADLARHLLPCVIHAAVLKVKEEESLENISSVKKIIKQIISHSSKVLHFPNPEDKKLEEIIHQITNVEALIARARSLKAKFGTEKCEQEEEKEDLERFVSCLLEQPEVLVTGAGRGHAGRIIHKLFVNAQRAAAMTPPEEELKRMGSPEERRQNSVSDFPPPAGREFILRTTVPRPAPYSKALPQRMYSVLTKEDFRLAGAFSSDTSFF

From article PMC11711316 (Nature Communications, 2025)
